Measured values from patent US6897196B1, “pH sensitive lipids based on ortho ester linkers, composition and method” (The Regents of the University of California, priority 2001, dated 2005).

Experiments:
[1] = Acid sensitivity of POD as monitored by thin layer chromatography; format: physicochemical; details: for degradation of POD (disappearance of the compound spot at Rf~0.4): within one hour
Protocol: Conical polystyrene microcentrifuge tubes (0.5 mL) containing 20 μL 100 mM sodium phosphate buffer of different pH were pre-warmed at 37° C. for 30 min and silica gel TLC plates (WhatmanCE from Whatman Ltd, Maidstoned, Kent, England) were pre-equilibrated with the solvent system (CHCl3/MeOH/NH4OH=100:15:1) by running the plates without samples followed by brief air-drying. Eight milligrams of POD was dissolved into 100 μL water by vortexing and 20 μL of the solution was added into each of the pre-warmed tubes and mixed thoroughly. The tubes were incubated at 37° C. and 10 μL of the solutions were aliquoted at different time points and mixed with 10 μL of 10% concentrated NH4OH (30% w/w) in acetone to stop the hydrolysis. Five microliters of the mixture was spotted onto pre-equilibrated TLC plates. Three microliters of distearoyl glycerol, monomethyl ether of PEG2000 and POD in 10 mg1 mL CHCl3 solution were also spotted as standards. TLC plates were developed, heated at 150° C. for 5 min and stained in I2 chamber for 1 h to observe the locations of POD and its degradation products.

[2] = Critical Micelle Concentration of POD dispersion; format: physicochemical; details: 150 mM Tris/CL buffer pH 9.0
Protocol: In one example 10 μmoles of methoxypolyethylene glycol 2000-diortho ester-distearoyl glycerol conjugate was dried from a chloroform solution unto the sides of a glass vessel. […] Under these conditions the POD has a Critical Micelle Concentration (CMC) of about 10 μM and micelles will be formed. An aliquot of 0.05 mL of the POD micelles is added to 1 mL of a 10 mM (total lipid) liposome suspension consisting of DSPC:Chol in the mole ratio of 55:40 in a 0.14 M NaCl-10 mM Tris, pH 8.0 buffer. The mixture is incubated at 37° C. for 2 hours. After this time the POD is incorporated into the liposome and the liposome can be injected into an animal.

3,9-Diethyl-3-(2,3-distearoyloxypropyloxy)-9-(methoxypolyethyleneglycol2000-1-yl)-2,4,8,10-tetraoxaspiro[5,5]undecane [POD]
degradation of POD ([1]; buffer of neutral pH 7.4, 37° C., over 3 hours): most of the conjugate remained intact
approximate half-life of POD degradation ([1]; buffer of pH 6, 37° C.): ~2.5 h
degradation of POD (disappearance of the compound spot at Rf~0.4) ([1]; buffer pH 4, 37° C.): completely degraded
degradation of POD (disappearance of the compound spot at Rf~0.4) ([1]; buffer pH 5, 37° C.): completely degraded
Critical Micelle Concentration (CMC) [2]: about 10 μM
